Tests used:
Rat plasma stability = type: in vitro ADME; conditions: 37 °C
Procedure: (§1) For plasma stability studies, C3a and experimental compounds (10 μL, 1 mM in DMSO) were added to neat rat plasma (190 μL) and heated to 37 °C in a circulating water bath. Aliquots (20 µL) were collected at time points (0, 2, 5 and 10 min for C3a; 0, 5, 15, 30, 60, 120 and 240 min for other test compounds) and added directly to MeCN/H2O (80 µL, 9:1). The samples were centrifuged at 13,000 g for 3 min before supernatants were isolated and analyzed for test compound degradation via LC-MS. For liver microsomal stability studies, commercially available rat liver microsomes from Life Technologies, GIBCO were used. In brief, microsomes stored at −80 °C were slowly defrosted on ice. Test compounds (183 μL, 1 μM in 100 mM phosphate buffer pH 7.4 containing 0.1 % DMSO) were added to microsomes (5 μL) and NADPH (2 µL, 20 mM). Test solutions were heated in a circulating water bath at 37 °C for 5 min before additional cofactor NADPH (10 μL, 20 mM) was added. Aliquots (20 μL) were taken at time points (0, 5, 15, 30 and 60 min from the second addition of NADPH). Aliquots were added to MeCN/H2O (80 μL, 9:1) and centrifuged at 13,000 g for 3 min. Supernatants were analyzed for test compound degradation by LC-MSMS. Concentrations were plotted as a function of time on a semi-logarithmic graph. Rat plasma and microsomal activity was confirmed by rapid degradation of SLIGRL-NH2 (t1/2 < 5 min) in a parallel experiment.

[1] = Rat liver microsomal stability; type: in vitro ADME; conditions: rat, liver microsomes, pH 7.4; parallel control experiment, 37 °C; read-out: t1/2 in rat liver microsomes
Procedure: as §1

C3aR [2] = molecular target: T1, C3aR (Homo sapiens, UniProt Q16581); test: Intracellular Ca2+ release in human monocyte-derived macrophages (agonist mode); type: cell-based; set-up: Concentration-dependent Ca^2+ release in human monocyte-derived macrophages (HMDMs); endogenous in cells; host or cells: primary human monocyte-derived macrophages (HMDMs); conditions: HMDMs, n ≥ 3, ± SEM
T1 sequence (Q16581 1-482): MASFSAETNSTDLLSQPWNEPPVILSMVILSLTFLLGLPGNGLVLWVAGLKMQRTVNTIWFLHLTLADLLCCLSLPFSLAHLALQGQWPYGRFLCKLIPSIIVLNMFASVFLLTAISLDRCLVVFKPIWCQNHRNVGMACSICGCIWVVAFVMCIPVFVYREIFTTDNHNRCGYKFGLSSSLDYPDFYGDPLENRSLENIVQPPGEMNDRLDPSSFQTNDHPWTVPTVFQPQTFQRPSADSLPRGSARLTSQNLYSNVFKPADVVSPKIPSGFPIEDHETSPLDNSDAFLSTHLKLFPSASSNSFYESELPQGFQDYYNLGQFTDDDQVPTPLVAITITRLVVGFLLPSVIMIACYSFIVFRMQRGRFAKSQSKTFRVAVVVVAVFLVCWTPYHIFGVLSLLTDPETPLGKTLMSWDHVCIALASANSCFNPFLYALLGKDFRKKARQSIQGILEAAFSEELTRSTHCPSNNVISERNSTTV
Procedure: HMDMs were isolated using Ficoll-paque density centrifugation (GE Healthcare Bio-Science, Uppsala, Sweden) from buffy coat (of anonymous human donors) provided by the Australian Red Cross Blood Service, Brisbane. CD14^+ monocytes were positively selected using CD14 MicroBeads (Miltenyi Biotech, Auburn, USA)[40], [41]. CD14^+ monocytes were differentiated to HMDMs using 100 ng/mL of recombinant human macrophage colony-stimulating factor (PeptroTech, Rocky Hill, USA) for 7 days in Iscove’s modified Dulbecco’s media supplemented with 10% fetal bovine serum, penicillin (100 U/mL), streptomycin (100 µg/mL) and L-glutamine (2 mM). HMDMs were supplemented after 5 days with fresh medium containing 10 ng/ml macrophage colony-stimulating factor and collected by gentle scraping on day 7.
HMDMs were seeded to a 96-well clear-bottom black-wall assay plate at a density of 5 × 10^4 cells per well and allowed to adhere overnight. Prior to assay, cells were incubated with dye-loading buffer (Hank’s balance salt solution (HBSS) buffer, 4 μM Fluo-3 AM, 25 μl Pluronic acid F-127 and 1% fetal bovine serum) for 1 h at 37 °C. Cells were then washed once with assay buffer (HBSS supplemented with 2.5 mM probenecid and 20 mM HEPES, pH 7.4). Intracellular calcium release was monitored using a fluorescence imaging plate reader (excitation 495 nm, emission 520 nm). The percentage responses were plotted against logarithmic concentrations of each test compound[42].

C5aR = molecular target: T2, C5aR (Homo sapiens, UniProt P21730); test: [125I]-hC5a competition binding on HMDMs; conditions: [125I]-hC5a 25 pM
T2 construct: endogenous in cells; host or cells: primary human monocyte-derived macrophages (HMDMs)
T2 sequence (P21730 1-350): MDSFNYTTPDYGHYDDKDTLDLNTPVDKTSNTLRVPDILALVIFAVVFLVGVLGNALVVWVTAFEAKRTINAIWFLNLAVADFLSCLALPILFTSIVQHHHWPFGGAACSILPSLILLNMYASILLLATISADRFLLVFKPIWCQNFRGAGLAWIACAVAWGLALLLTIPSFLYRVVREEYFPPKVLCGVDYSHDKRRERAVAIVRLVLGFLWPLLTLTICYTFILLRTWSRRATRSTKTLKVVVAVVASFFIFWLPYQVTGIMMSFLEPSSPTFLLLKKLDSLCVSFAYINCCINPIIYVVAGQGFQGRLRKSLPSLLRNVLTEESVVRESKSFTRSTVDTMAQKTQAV
Procedure: Receptor binding was performed by ligand competition with labelled 80 pM [^125I]-C3a or 25 pM [^125I]-C5a (2200 Ci/mmol; Perkin Elmer, Torrance, CA, USA) on HMDMs (1.2 × 10^6 cells/ml). HMDMs were treated with [^125I]-C3a or [^125I]-C5a ± various concentrations of unlabelled C3a/C5a or experimental ligands were diluted with assay buffer (50 mM Tris, 3 mM MgCl2, 0.1 mM CaCl2, 0.5% (w/v) BSA, pH 7.4) for 60 min at room temperature. Unbound [^125I]-C3a or [^125I]-C5a was removed by filtration through glass microfibre filter GF/B (Whatman Iner. Ltd, England) and washed three times with cold buffer (50 mM Tris-HCl pH 7.4). Bound [^125I]-C3a or [^125I]-C5a were assessed by scintillation counting on Microbeta counter. Specific binding was defined as the difference between total binding and nonspecific binding as determined in the presence of 1 μM unlabelled C3a or C5a[4].

C3aR [3] = molecular target: T1, C3aR; test: Histamine secretion in human LAD2 mast cells (agonist mode); type: cell-based; set-up: Concentration-dependent histamine secretion in human LAD2 mast cells; endogenous in cells; host or cells: LAD2 human mast cells; conditions: compound alone, 30 min, n ≥ 3, ± SEM
Procedure: LAD2 human mast cells (kindly provided by Dr Dean Metcalfe, National Institute of Allergy and Infectious Diseases, National Institute of Health) were cultured in StemPro®-34 Serum Free Media (Invitrogen, Australia) supplemented with StemPro®-34 nutrient, 100 U/mL penicillin, 100 μg/mL streptomycin, 2 mM GlutaMAX, and 100 ng/mL human stem cell factor (SCF). Cells were hemi-depleted weekly and were not allowed to grow beyond a density of 0.5 × 10^6/mL. This cell line was authenticated by expression of tryptase and histamine granules. For the histamine assay, 1 × 10^4 cells per well were seeded in StemPro®-34 SFM in 96-well plates for 30 min before any treatments. For agonist studies, the cells were treated with compounds prepared in media for 30 min. For antagonist studies, the cells were pre-treated with compounds prepared in SFM for 30 min before addition of C3aR agonists for another 30 min. Cells were centrifuged (500 g, 5 min, 4 °C) and cell-free supernatants were collected for measuring histamine. Histamine content was measured using the histamine EIA kit according to the manufacturer’s instructions (Abnova, Taiwan). The readings were recorded on a FLUOstar Optima (BMG LabTechnologies, Offenburg, Germany).

[4] = test system: wild-type human HEK293 cells (C3aR−/−); test: Intracellular Ca2+ release in wild-type HEK293 cells; type: cell-based
C3aR [5] = molecular target: T1, C3aR; test: Intracellular Ca2+ release in HEK293 cells transfected with C3aR; type: cell-based; set-up: Concentration-dependent Ca^2+ release in human monocyte-derived macrophages (HMDMs); endogenous in cells; host or cells: primary human monocyte-derived macrophages (HMDMs); conditions: HEK293 cells transfected with C3aR (C3aR+/+), compound alone

Row | Substance | half-life at 50 µM (Rat plasma stability; rat, plasma (neat), parallel control experiment, read-out: t1/2 in rat plasma) [min] | half-life at 0.915 µM [1] [min] | EC50 (C3aR [2]) [nM] | C5aR binding by competition with [125I]-hC5a (C5aR) | Stability in rat plasma (Rat plasma stability; neat rat plasma, over 4 h (C3a up to 10 min)) | EC50 (C3aR [3]) [nM] | Intracellular Ca2+ release [4] | Intracellular Ca2+ release (C3aR [5])
1 | H-SLIGRL-NH2 [SLIGRL-NH2, reference compound] | < 5 | < 5 |  |  |  |  |  | 
2 | hC3a: human complement protein C3a, 77 residue ~9 kDa helix bundle inflammatory protein |  |  | 8 ± 2 | no binding | degraded within minutes | 3 ± 1.5 | did not induce Ca^2+ release | did induce Ca^2+ release

Reference: article PMC5570900, “Exploiting a novel conformational switch to control innate immunity mediated by complement protein C3a” (Nature Communications, 2017)
